Test results published in US20160347848A1 (AstraZeneca / MedImmune, published 2016).

T1: human OX40 (human, UniProt P43489 29-277)
T1 construct: The form used for the Y182A statement ('native') is not described; also called native human OX40; CD134
T1 sequence: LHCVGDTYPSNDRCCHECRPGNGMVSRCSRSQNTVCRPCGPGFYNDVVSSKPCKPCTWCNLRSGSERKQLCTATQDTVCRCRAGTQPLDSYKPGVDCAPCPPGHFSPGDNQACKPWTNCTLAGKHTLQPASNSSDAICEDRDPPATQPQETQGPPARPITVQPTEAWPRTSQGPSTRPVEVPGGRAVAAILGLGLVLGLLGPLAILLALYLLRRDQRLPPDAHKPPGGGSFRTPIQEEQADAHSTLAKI

T2: mouse OX40 (mouse, UniProt P47741 20-272, limits assumed)
T2 construct: also called native mouse OX40
T2 sequence (looked up): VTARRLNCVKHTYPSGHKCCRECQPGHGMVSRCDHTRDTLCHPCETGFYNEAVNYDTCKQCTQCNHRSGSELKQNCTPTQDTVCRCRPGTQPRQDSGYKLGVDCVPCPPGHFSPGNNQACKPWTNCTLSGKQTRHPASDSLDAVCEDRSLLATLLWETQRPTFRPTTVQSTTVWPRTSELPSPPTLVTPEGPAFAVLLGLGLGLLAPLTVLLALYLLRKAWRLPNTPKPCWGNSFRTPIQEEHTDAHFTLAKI


Assays:
Assay in all cases: not described
human OX40 = molecular target: T1, human OX40
mouse OX40 = molecular target: T2, mouse OX40
mouse PD-L1 = mouse PD-L1 (mouse, UniProt Q9EP73 19-239, limits assumed)
Sequence of mouse PD-L1 (Q9EP73 19-239 limits assumed): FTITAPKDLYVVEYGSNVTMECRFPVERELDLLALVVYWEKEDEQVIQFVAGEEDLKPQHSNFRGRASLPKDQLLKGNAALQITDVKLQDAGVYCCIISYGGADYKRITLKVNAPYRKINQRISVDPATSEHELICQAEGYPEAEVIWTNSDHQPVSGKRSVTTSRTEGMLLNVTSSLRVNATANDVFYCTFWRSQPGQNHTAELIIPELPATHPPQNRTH

binding result (human OX40) | binding result (mouse OX40) | binding result (mouse PD-L1) | Binder
no binding | no binding |  | Y182A mutant mouse OX40L mouse IgG1 fusion protein control (Fc fusion, UniProt P43488 51-198, looked up, also called OX40L FP Y182A; mOX40L FP Y182A; not shown: mouse IgG1 Fc domain and any linker or trimerization domain) SSSPAKDPPIQRLRGAVTRCEDGQLFISSYKNEYQTMEVQNNSVVIKCDGLYIIYLKGSFFQEVKIDLHFREDHNPISIPMLNDGRRIVFTVVASLAFKDKVYLTVNAPDTLCEHLQINDGELIVVQLTPGACAPEGSYHSTVNQVPL
 |  | no binding | MEDI4736 (antibody, human IgG1, V domains shown, also called 2.14H9OPT) VH: EVQLVESGGGLVQPGGSLRLSCAASGFTFSRYWMSWVRQAPGKGLEWVANIKQDGSEKYYVDSVKGRFTISRDNAKNSLYLQMNSLRAEDTAVYYCAREGGWFGELAFDYWGQGTLVTVSS VL: EIVLTQSPGTLSLSPGERATLSCRASQRVSSSYLAWYQQKPGQAPRLLIYDASSRATGIPDRFSGSGSGTDFTLTISRLEPEDFAVYYCQQYGSLPWTFGQGTKVEIK
